T1: OR-1 (UniProt Q62755 SEQ:1-446)
T1 sequence: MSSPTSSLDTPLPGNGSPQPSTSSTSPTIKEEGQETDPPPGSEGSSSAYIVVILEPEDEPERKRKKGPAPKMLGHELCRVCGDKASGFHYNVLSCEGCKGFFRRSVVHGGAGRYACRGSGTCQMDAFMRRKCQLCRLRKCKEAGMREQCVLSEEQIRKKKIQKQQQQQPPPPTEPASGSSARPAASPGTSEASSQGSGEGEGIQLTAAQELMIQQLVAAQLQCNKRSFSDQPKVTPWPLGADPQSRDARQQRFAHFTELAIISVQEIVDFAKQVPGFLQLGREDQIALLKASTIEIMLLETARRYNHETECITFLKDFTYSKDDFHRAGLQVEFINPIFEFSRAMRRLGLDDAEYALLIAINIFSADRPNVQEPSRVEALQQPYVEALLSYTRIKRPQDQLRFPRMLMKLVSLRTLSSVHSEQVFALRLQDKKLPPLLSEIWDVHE

T2: OR-1/RXR heterodimer (UniProt Q62755;Q05343 Q62755:1-446,Q05343:1-467)
T2 sequence 1: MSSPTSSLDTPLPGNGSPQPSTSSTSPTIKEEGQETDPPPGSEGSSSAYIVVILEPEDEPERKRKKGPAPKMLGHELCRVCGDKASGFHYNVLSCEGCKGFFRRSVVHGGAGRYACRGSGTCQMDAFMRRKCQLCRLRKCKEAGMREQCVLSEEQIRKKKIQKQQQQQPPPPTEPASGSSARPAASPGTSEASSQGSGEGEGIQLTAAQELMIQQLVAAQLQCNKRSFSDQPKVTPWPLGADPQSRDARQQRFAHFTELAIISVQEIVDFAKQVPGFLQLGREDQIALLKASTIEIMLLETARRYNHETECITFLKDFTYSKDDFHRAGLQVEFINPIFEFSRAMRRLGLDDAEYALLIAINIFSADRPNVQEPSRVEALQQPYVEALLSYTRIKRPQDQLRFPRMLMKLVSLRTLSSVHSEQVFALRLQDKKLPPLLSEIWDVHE
T2 sequence 2: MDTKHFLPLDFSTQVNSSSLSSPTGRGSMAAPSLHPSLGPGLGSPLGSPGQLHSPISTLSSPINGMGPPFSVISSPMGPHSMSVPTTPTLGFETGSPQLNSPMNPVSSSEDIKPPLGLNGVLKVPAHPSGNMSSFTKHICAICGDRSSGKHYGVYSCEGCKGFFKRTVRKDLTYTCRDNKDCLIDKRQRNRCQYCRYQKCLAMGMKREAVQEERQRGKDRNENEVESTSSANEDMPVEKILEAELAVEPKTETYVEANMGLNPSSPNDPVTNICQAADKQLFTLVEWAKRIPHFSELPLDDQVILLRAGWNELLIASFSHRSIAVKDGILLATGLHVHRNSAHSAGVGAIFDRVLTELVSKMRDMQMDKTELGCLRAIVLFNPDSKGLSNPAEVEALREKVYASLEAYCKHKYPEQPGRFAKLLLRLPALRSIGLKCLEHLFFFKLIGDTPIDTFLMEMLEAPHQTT

T3: RXR (RXRalpha) (UniProt Q05343 Q05343:1-467)
T3 sequence: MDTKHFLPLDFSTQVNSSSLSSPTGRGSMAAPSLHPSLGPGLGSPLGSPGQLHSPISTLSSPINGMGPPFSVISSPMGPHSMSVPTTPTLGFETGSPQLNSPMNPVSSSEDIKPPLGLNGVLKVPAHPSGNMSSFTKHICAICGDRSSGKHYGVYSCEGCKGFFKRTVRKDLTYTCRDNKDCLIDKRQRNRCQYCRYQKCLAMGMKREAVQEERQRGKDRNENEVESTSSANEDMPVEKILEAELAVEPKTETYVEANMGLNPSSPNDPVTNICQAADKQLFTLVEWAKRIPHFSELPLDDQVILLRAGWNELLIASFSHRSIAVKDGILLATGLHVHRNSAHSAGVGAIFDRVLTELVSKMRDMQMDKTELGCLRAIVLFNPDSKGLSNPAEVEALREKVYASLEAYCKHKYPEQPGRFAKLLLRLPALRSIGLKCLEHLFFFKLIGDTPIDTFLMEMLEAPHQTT

B1: DR2 (dsDNA)
DNA 1: AGCTTAGGTCACCAGGTCAGTTCA
DNA 2: TGAACTGACCTGGTGACCTAAGCT
B2: DR0 (dsDNA)
DNA 1: AGCTTCAGGTCAAGGTCAGGTTCA
DNA 2: TGAACCTGACCTTGACCTGAAGCT
B3: DR5 (dsDNA)
DNA 1: AGTCAGGTCACTCGTAGGTCAGTCA
DNA 2: TGACTGACCTACGAGTGACCTGACT
B4: DR4 (dsDNA)
DNA 1: AGTCAGGTCACTCGAGGTCAGTCA
DNA 2: TGACTGACCTCGAGTGACCTGACT
B5: DR3 (dsDNA)
DNA 1: AGTCCAGGTCACTCAGGTCAGTCA
DNA 2: TGACTGACCTGAGTGACCTGGACT
B6: DR6 (dsDNA)
DNA 1: AGTCAGGTCACTCGTTAGGTCAGTCA
DNA 2: TGACTGACCTAACGAGTGACCTGACT
B7: DR1 (dsDNA)
DNA 1: AGCTTCAGGTCACAGGTCAGTTCA
DNA 2: TGAACTGACCTGTGACCTGAAGCT

Columns and labels:
OR-1 [1] = molecular target: T1, OR-1; test: EMSA; OR-1 alone; conditions: tags: none; TNT reticulocyte lysate; label: 32P
Description: (§1) Gel shifts were performed using in vitro-translated OR-1 and RXR with the commercially-available TNT™-coupled reticulocyte lysate system (Promega, Madison USA). Proteins were incubated on ice for 15 min with 4 μg of poly (dI-dC) and with unlabelled competitor DNA where indicated in a solution comprising 100 mM KCl; 10 mM Hepes, pH 7.6; 1 mM dithiothreitol; 1 mM EDTA; 10% (wt./vol) glycerol, before addition of 0.5 ng of a ^32P-end labelled oligonucleotide probe. The reaction mixtures were incubated for a further 10 min at 22° C. before electrophoresis at 200V and 4° C. in pre-run 4% polyacryliamide/0.25 TBE (0.089 m tris-borate pH 8.3, 0.025 EDTA) gels. The following oligonucleotides and their complements were used as probes: DR0 […] (SEQ ID NO:3) DR1 […] (SEQ ID NO:4) DR2 […] (SEQ ID NO:5) DR3 […] (SEQ ID NO:6) DR4 […] (SEQ ID NO:7) DR5 […] (SEQ ID NO:8) DR6 […] (SEQ ID NO:9)
(§2) The appearance of this complex depends on the presence of RXR and is inhibited by a 10-fold excess of the specific DNA target element, but not by a 100-fold excess of an unrelated DNA element—see FIG. 5B, lane 7)

OR-1 [2] = molecular target: T1, OR-1; test: EMSA; OR-1 alone; conditions: tags: none; TNT reticulocyte lysate; label: 32P; remark: listed apart in the source
Description: as §1

OR-1/RXR heterodimer = molecular target: T2, OR-1/RXR heterodimer; test: EMSA; 100 mM KCl, 10 mM Hepes pH 7.6, 1 mM EDTA, 22 C; inhibited by 10-fold excess specific DNA, not by 100-fold unrelated DNA; conditions: tags: RXR from pRRXR-T7; label: 32P
Description: as §1, §2

RXR (RXRalpha) = molecular target: T3, RXR (RXRalpha); test: EMSA; RXR alone; conditions: tags: none; pRRXR-T7, TNT reticulocyte lysate; label: 32P
Description: as §1, §2

Binder	binding result (OR-1 [2])	other results
B1		binding result (OR-1 [1]): no binding
B2	no binding	
B3	no binding	
B4		binding result (OR-1 [1]): no binding; binding result (OR-1/RXR heterodimer): binds; binding result (RXR (RXRalpha)): no binding
B5	no binding	
B6	no binding	
B7	no binding	
